{"source": "paper PMC12614781", "about": "“The VelB IDD promotes selective heterodimer formation of velvet proteins for fungal development” (Life Science Alliance, 2025)", "target": "T1, VelB-GFP (A. nidulans Velvet-like B, full length, fused to GFP) (A. nidulans, UniProt C8VTS4 1-369)", "T1 construct": "Velvet-like B (VelB), A. nidulans, AN0363, full-length protein with the 99-aa intrinsically disordered domain (IDD) inside the velvet domain; Strains AGB1132 (wild-type background), AGB1190 (veA deletion background), AGB1136 (with vosA:ha), AGB1149 (with veA:ha); plasmid pME4687; Fusion printed as 67 kD; also called velB::sgfp; full-length VelB-GFP; source: A. nidulans, velB:gfp in locus under …", "T1 sequence (looked up)": "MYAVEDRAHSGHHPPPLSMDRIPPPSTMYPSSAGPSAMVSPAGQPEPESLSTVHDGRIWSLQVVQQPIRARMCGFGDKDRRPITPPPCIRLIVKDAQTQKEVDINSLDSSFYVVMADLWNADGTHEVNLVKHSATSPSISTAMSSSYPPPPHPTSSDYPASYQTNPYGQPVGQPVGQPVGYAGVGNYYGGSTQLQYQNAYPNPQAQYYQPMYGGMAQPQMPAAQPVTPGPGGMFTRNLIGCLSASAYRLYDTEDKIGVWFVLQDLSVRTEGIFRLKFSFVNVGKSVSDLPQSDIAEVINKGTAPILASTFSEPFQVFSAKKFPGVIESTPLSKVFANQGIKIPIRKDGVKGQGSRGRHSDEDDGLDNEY", "test": "co-IP; GFP and HA (anti-HA agarose) pull-downs from vegetative mycelium of A. nidulans strains expressing veA:HA or vosA:HA and velB:gfp or velB^ΔIDD:gfp under native promoters, intact veA; Western with GFP and HA antibodies", "conditions": "partners not purified"}
{"binder": "VosA-HA (A. nidulans VosA with HA tag) (natural protein, UniProt Q5BBX1 1-430, looked up, Viability of spores A (VosA), A. nidulans, AN1959; the vosA gene amplified with its 5' flanking region; Plasmid pME4693; strains AGB1136 (with velB:gfp) and AGB1137 (with velB^ΔIDD:gfp); source: A. nidulans, vosA:ha under its native promoter, in extract of vegetative mycelium) MSAANYPDPSLPRPSTSDDFELIVRQNPNRARVAGGKEKERKPVDPPPIVQIRVREEGTYLAQHYLQSPYFFMSCSLYDAQEDAPASIPPSTALTGTLVSSLHRLKDVDNTDGGFFVWGDLSIKVEGDFRLKFSLFEMRKTDVVFLKSIVSERFTVSPPKSFPGMAESTFLSRSFADQGVKLRIRKEPRTLIKRTAPRPEEYPQAAIPRSPSDRTAMQIPGSSYPAPPYQPTSRDYSYYAPVKRQRTSVDYGARGMYDADGRMRQMETYPQTATLYGQPGGYPTPMMGYPSGHGGVPDYAMSYGLPPSAQVPQMQDPAAQSRSSQQATMQSLGMVNPPGTPTPDSARAMMQQAYPRPQYSASTAVLPPLQQSRNYPQGTNGATRGYYEQSPQATPILPSQPLGTSEAERYGVPPGHTGYDHTGSANGTPR", "values": [{"measurement": "fold abundance of VosA in the GFP pull-down against the VelB^ΔIDD-GFP strain", "result": 10, "unit": "fold"}]}
